Experiments:
[1] = target: T1, Mammaglobin B (MGB2), recombinant (UniProt O75556 19-95); assay: EMSA; aptamer 600 nM, protein 0-220 nM; unit implied by nM axis; EMSA: 50 mM Tris-HCl, 10 mM reduced glutathione, pH 8.0, 1 h at 37 C, 8% native PAGE; transfected-cell flow cytometry: PBS, 5 mM MgCl2, 4 C, 30 min, formaldehyde-fixed cells; settings: tags: GST (stated for the SELEX protein)
T1 sequence: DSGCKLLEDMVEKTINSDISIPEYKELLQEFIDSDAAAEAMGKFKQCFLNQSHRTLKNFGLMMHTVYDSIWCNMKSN

[2] = target: Mammaglobin A (MGB1), recombinant (UniProt Q13296 19-93); assay: as above; settings: tags: GST (stated for the SELEX protein)
Chain of Mammaglobin A (MGB1), recombinant (Q13296 19-93): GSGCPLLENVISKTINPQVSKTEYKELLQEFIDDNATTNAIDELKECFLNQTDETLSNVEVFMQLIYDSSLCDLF

B1: MAMB1 (ssDNA)
DNA: CATGCTTACCTATAGTGAACCCAACGTCGAACTGAATCCCGTGTCCTTTGAGAACTGACTCATAC
[1]
  Kd: 95 ± 7 nM

B2: MAMA2 (ssDNA)
DNA: CATGCTTACCTATAGTGAACCCGGGACAGAACGTGCGCTTTGAGCTTTGAGAACTGACTCATAC
[2]
  Kd: 88 ± 6 nM

Reference: paper PMC5670216, “In vitro selections of mammaglobin A and mammaglobin B aptamers for the recognition of circulating breast tumor cells”
